Data taken from publication PMC12416549 (2024).
Residue numbers refer to the chain shown, from its start. Names may count otherwise.

T1: TNFR1 (Homo sapiens, UniProt P19438)
T1 chain: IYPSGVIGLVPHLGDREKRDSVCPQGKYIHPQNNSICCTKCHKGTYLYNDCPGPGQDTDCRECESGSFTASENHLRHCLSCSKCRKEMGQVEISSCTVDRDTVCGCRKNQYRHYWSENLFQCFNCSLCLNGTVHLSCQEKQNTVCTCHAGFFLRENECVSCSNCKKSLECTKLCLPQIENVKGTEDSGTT

B1: L75H (designed binder)
chain: MTLQELLREEALRRAEAEAFRYALELLAEKFPEQKEYLLDLAEEIESQIRSLSGVDVEDVRKFLDKEWAWVKELHAEHPAELAEVEAARAARLAELRAEVEAKVAA
B2: A98V (designed binder)
chain: B1 chain with H75L, A98V
B3: A90N (designed binder)
chain: B1 chain with H75L, A90N
B4: I45Q (designed binder)
chain: B1 chain with I45Q, H75L
B5: L12I (designed binder)
chain: B1 chain with L12I, H75L
B6: L96D (designed binder)
chain: B1 chain with H75L, L96D
B7: S51N (designed binder)
chain: B1 chain with S51N, H75L
B8: E86V (designed binder)
chain: B1 chain with H75L, E86V
B9: D40V (designed binder)
chain: B1 chain with D40V, H75L
B10: V71C (designed binder)
chain: B1 chain with V71C, H75L
B11: E95G (designed binder)
chain: B1 chain with H75L, E95G
B12: D59S (designed binder)
chain: B1 chain with D59S, H75L
B13: R21V (designed binder)
chain: B1 chain with R21V, H75L
B14: E29V (designed binder)
chain: B1 chain with E29V, H75L
B15: A15R (designed binder)
chain: B1 chain with A15R, H75L
B16: A28I (designed binder)
chain: B1 chain with A28I, H75L
B17: E95W (designed binder)
chain: B1 chain with H75L, E95W
B18: D56N (designed binder)
chain: B1 chain with D56N, H75L
B19: A105T (designed binder)
chain: B1 chain with H75L, A105T
B20: E16L (designed binder)
chain: B1 chain with E16L, H75L
B21: A15T (designed binder)
chain: B1 chain with A15T, H75L
B22: A42L (designed binder)
chain: B1 chain with A42L, H75L
B23: L6W (designed binder)
chain: B1 chain with L6W, H75L
B24: R8W (designed binder)
chain: B1 chain with R8W, H75L
B25: A98P (designed binder)
chain: B1 chain with H75L, A98P
B26: E58H (designed binder)
chain: B1 chain with E58H, H75L
B27: K72I (designed binder)
chain: B1 chain with K72I, H75L
B28: L93V (designed binder)
chain: B1 chain with H75L, L93V
B29: A91R (designed binder)
chain: B1 chain with H75L, A91R
B30: E95S (designed binder)
chain: B1 chain with H75L, E95S
B31: L39K (designed binder)
chain: B1 chain with L39K, H75L
B32: A23H (designed binder)
chain: B1 chain with A23H, H75L
B33: H78Y (designed binder)
chain: B1 chain with H75L, H78Y
B34: I49S (designed binder)
chain: B1 chain with I49S, H75L
B35: R13N (designed binder)
chain: B1 chain with R13N, H75L
B36: E81S (designed binder)
chain: B1 chain with H75L, E81S
B37: E18P (designed binder)
chain: B1 chain with E18P, H75L
B38: K103S (designed binder)
chain: B1 chain with H75L, K103S
B39: A17Q (designed binder)
chain: B1 chain with A17Q, H75L
B40: F20L (designed binder)
chain: B1 chain with F20L, H75L
B41: L93I (designed binder)
chain: B1 chain with H75L, L93I
B42: L6S (designed binder)
chain: B1 chain with L6S, H75L
B43: E77W (designed binder)
chain: B1 chain with H75L, E77W
B44: R50D (designed binder)
chain: B1 chain with R50D, H75L
B45: L75C (designed binder)
chain: B1 chain with H75C
B46: L3T (designed binder)
chain: B1 chain with L3T, H75L
B47: E44P (designed binder)
chain: B1 chain with E44P, H75L
B48: E36Q (designed binder)
chain: B1 chain with E36Q, H75L
B49: M1C (designed binder)
chain: B1 chain with M1C, H75L
B50: L12F (designed binder)
chain: B1 chain with L12F, H75L
B51: L26T (designed binder)
chain: B1 chain with L26T, H75L
B52: V100R (designed binder)
chain: B1 chain with H75L, V100R
B53: G54D (designed binder)
chain: B1 chain with G54D, H75L
B54: V71M (designed binder)
chain: B1 chain with V71M, H75L
B55: L27C (designed binder)
chain: B1 chain with L27C, H75L
B56: L41M (designed binder)
chain: B1 chain with L41M, H75L
B57: D65C (designed binder)
chain: B1 chain with D65C, H75L
B58: R21K (designed binder)
chain: B1 chain with R21K, H75L
B59: D65S (designed binder)
chain: B1 chain with D65S, H75L

Biological target: T1, TNFR1
Assay: yeast display SC50

apparent Kd (screen) | Binder
539 pM | B1
490 pM | B2
653 pM | B3
15200 pM | B4
539 pM | B5
539 pM | B6
1690 pM | B7
956 pM | B8
5310 pM | B9
653 pM | B10
653 pM | B11
539 pM | B12
718 pM | B13
539 pM | B14
718 pM | B15
7780 pM | B16
446 pM | B17
653 pM | B18
869 pM | B19
593 pM | B20

apparent Kd (screen) | Binder
490 pM | B21
2050 pM | B22
3990 pM | B23
539 pM | B24
539 pM | B25
593 pM | B26
539 pM | B27
869 pM | B28
446 pM | B29
539 pM | B30
1160 pM | B31
1270 pM | B32
653 pM | B33
539 pM | B34
1160 pM | B35
490 pM | B36
1050 pM | B37
539 pM | B38
277 pM | B39
593 pM | B40

apparent Kd (screen) | Binder
539 pM | B41
4830 pM | B42
539 pM | B43
490 pM | B44
653 pM | B45
4830 pM | B46
1160 pM | B47
490 pM | B48
718 pM | B49
593 pM | B50
490 pM | B51
718 pM | B52
13800 pM | B53
593 pM | B54
539 pM | B55
718 pM | B56
539 pM | B57
593 pM | B58
790 pM | B59
